The source of these data is patent publication US20210395390A1.

Substitutions are numbered along the chain they refer to.

A word on the EC50: it is the concentration at which the effect is half-maximal. A high value points to a need for much substance.

Test [1] has as its target anti-FXIa antibody 076D-M007-H04-CDRL3-N110D. The experiment in a line: cell-based or functional assay.
Test [2] shares this target. The experiment in a line: ELISA, 076D-M007-H04-CDRL3-N110D coated at 1 µg/ml, anti-human lambda light chain-peroxidase detection.

B1: TPP-8236 (antibody, human IgG1, lambda, V domains shown)
VH: EVQLLESGGGLVQPGGSLRLSCAASGFTFSDYYMNWVRQAPGKGLEWVSTISGTGAAAFYADSVRGRFTISRDNSKNTLYLQMNSLRAEDTAVYYCARDQYLTGGAFDIWGQGTLVTVSS
VL: QSVLTQPPSASGTPGQRVTISCSGSSSNIGNNAVNWYQQLPGTAPKLLIYGNSNRPSGVPDRFSGSKSGTSASLAISGLRSEDEADYYCSSYRGSSTLVVFGGGTKLTVLG
In the case of B1, the Neutralizing activity, IC50 (biochemical FXIa assay) in test [1] was > 1000 nM. The EC50 in test [2] stood at 0.484 nM.

B2: TPP-8240 (antibody, human IgG1, lambda, V domains shown)
VH: EVQLLESGGGLVQPGGSLRLSCAASGFTFSSYAMSWVRQAPGKGLEWVAVISYDGSNKHYADSVKGRFTISRDNSKNTLYLQMNSLRAEDTAVYYCARDSMVRGKIFDYWGQGTLVTVSS
VL: QSVLTQPPSASGTPGQRVTISCSGSSSNIGNNAVNWYQQLPGTAPKLLIYEDNKRPSGVPDRFSGSKSGTSASLAISGLRSEDEADYYCMIWHSSAWVFGGGTKLTVLG
As for B2, the Neutralizing activity, IC50 (biochemical FXIa assay) in test [1] is > 1000 nM. The 50% effective concentration (EC50) in test [2] stood at 0.216 nM.

B3: TPP-8243 (antibody, human IgG1, lambda, V domains shown)
VH: EVQLLESGGGLVQPGGSLRLSCAASGFTFSNYGIHWVRQAPGKGLEWVSAIGTGGDTYYADSVMGRFTISRDNSKNTLYLQMNSLRAEDTAVYYCARDRGYYDILTGLYDYWGQGTLVTVSS
VL: QSVLTQPPSASGTPGQRVTISCSGSSSNIGNNAVNWYQQLPGTAPKLLIYGNYHRPSGVPDRFSGSKSGTSASLAISGLRSEDEADYYCSSYAGSNNWVFGGGTKLTVLG
With B3, in test [1], the Neutralizing activity, IC50 (biochemical FXIa assay) was 1.13 nM; the aPTT 1.5 X is 0.3 µM; the aPTT 1.5 X (EC150) was 0.3 µM; the biochemical FXIa assay IC 50 was determined as 1.1 nM. In test [1], the plasma based FXIa assay, IC50 came out at 5 nM and the plasma based assay IC 50 is 5 nM. In test [2], this molecule gave an EC50 of 0.256 nM.

B4: TPP-8246 (antibody, human IgG1, lambda, V domains shown)
VH: EVQLLESGGGLVQPGGSLRLSCAASGFTFSSYSMNWVRQAPGKGLEWVSTISGSGGITHYADSVKGRFTISRDNSKNTLYLQMNSLRAEDTAVYYCARDRGNRVAARPAFDYWGQGTLVTVSS
VL: QSVLTQPPSASGTPGQRVTISCTESSSNTGAGYDVHWYQQLPGTAPKLLIYGNTNRPSGVPDRFSGSKSGTSASLAISGLRSEDEADYYCASWDDNLGGWVFGGGTKLTVLG
Turning to B4, the Neutralizing activity, IC50 (biochemical FXIa assay) in test [1] is > 1000 nM. The EC50 in test [2] is 0.477 nM.

B5: TPP-8238 (antibody, human IgG1, lambda, V domains shown)
VH: EVQLLESGGGLVQPGGSLRLSCAASGFTFSSYSMNWVRQAPGKGLEWVASISGSGANTYFADTVKGRFTISRDNSKNTLYLQMNSLRAEDTAMYYCARHGQVRLNYGSPTTVYNWFDRWGQGTLVTVSS
VL: B4 VL with E24G, T29I, T54S, S92A, D94H, N96S, G98N
B5 gave a Neutralizing activity (biochemical FXIa assay) (% inhibition at 1.00E-06 M) in test [1] of 75. The molecule also came in with an EC50 in test [2] of 0.485 nM.
